Test results from patent US20130224224A1 (Boehringer Ingelheim, published 2013).
Changes are numbered by the printed parent chain. Names may count otherwise. Read-outs that look alike come from different tables or passages of the source.

T1: human CX3CR1 (human, UniProt P49238 1-355)
T1 construct: overexpressed on CHO, BA/F3 or HEK293T cells; also called huCX3CR1; hCX3CR1
T1 sequence: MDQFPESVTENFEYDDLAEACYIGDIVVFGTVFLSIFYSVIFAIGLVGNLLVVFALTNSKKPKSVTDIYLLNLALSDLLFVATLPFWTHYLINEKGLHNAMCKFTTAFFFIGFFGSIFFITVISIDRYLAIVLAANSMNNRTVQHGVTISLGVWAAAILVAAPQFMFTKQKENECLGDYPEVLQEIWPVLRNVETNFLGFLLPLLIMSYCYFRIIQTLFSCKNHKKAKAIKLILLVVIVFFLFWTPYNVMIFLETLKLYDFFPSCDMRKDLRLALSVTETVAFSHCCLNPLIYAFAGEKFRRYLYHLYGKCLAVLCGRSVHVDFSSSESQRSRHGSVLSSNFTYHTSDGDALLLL

B1: C100CX3CR1BII043 (VHH)
VHH: EVQLVESGGGSVQPGESLRLSCAASGSIFSSNAMAWYRQAPGKRRDLVAAINSVGVTKYADSVKGRFTISRDNSKNTVYLQMNSLRPEDTAVYYCTSDPRRGWDTRYWGQGTLVTVSS
notes: 66B02 with A14P, A74S, K83R, Q108L; not shown: myc/His tag
B2: C100CX3CR1BII045 (VHH)
VHH: B1 VHH with E1D
notes: 66B02 with E1D, A14P, A74S, K83R, Q108L; not shown: myc/His tag
B3: C100CX3CR1BII047 (VHH)
VHH: B1 VHH with S11L
notes: 66B02 with S11L, A14P, A74S, K83R, Q108L; not shown: myc/His tag
B4: C100CX3CR1BII048 (VHH)
VHH: B1 VHH with E16G
notes: 66B02 with A14P, E16G, A74S, K83R, Q108L; not shown: myc/His tag
B5: C100CX3CR1BII049 (VHH)
VHH: B1 VHH with R44Q
notes: 66B02 with A14P, R44Q, A74S, K83R, Q108L; not shown: myc/His tag
B6: C100CX3CR1BII050 (VHH)
VHH: B1 VHH with D46E
notes: 66B02 with A14P, D46E, A74S, K83R, Q108L; not shown: myc/His tag
B7: C100CX3CR1BII056 (VHH)
VHH: B1 VHH with S11L, E16G, R44Q
notes: 66B02 with S11L, A14P, E16G, R44Q, A74S, K83R, Q108L; not shown: myc/His tag
B8: C100CX3CR1BII057 (VHH)
VHH: B1 VHH with S11L, E16G, D46E
notes: 66B02 with S11L, A14P, E16G, D46E, A74S, K83R, Q108L; not shown: myc/His tag
B9: C100CX3CR1BII060 (VHH)
VHH: B1 VHH with S11L, E16G, R44Q, D46E
notes: 66B02 with S11L, A14P, E16G, R44Q, D46E, A74S, K83R, Q108L; not shown: myc/His tag
B10: C100CX3CR1BII061 (VHH)
VHH: B1 VHH with S11L, E16G
notes: 66B02 with S11L, A14P, E16G, A74S, K83R, Q108L; not shown: myc/His tag
B11: CX3CR1BII66B02 (N52G, Q108L) (VHH, name in Kabat numbering)
VHH: B1 VHH with P14A, N52G, S74A, R86K
notes: Kabat numbering
B12: CX3CR1BII66B02 (N52Q, Q108L) (VHH, name in Kabat numbering)
VHH: B1 VHH with P14A, N52Q, S74A, R86K
notes: Kabat numbering
B13: CX3CR1BII66B02 (N52S, Q108L) (VHH, name in Kabat numbering)
VHH: B1 VHH with P14A, N52S, S74A, R86K
B14: CX3CR1BII66B02 (N52T, Q108L) (VHH, name in Kabat numbering)
VHH: B1 VHH with P14A, N52T, S74A, R86K
notes: Kabat numbering
B15: CX3CR1BII66B02 (S53G, Q108L) (VHH, name in Kabat numbering)
VHH: B1 VHH with P14A, S53G, S74A, R86K
notes: Kabat numbering
B16: CX3CR1BII66B02 (S53P, Q108L) (VHH, name in Kabat numbering)
VHH: B1 VHH with P14A, S53P, S74A, R86K
notes: Kabat numbering
B17: CX3CR1BII66B02 (S53T, Q108L) (VHH, name in Kabat numbering)
VHH: B1 VHH with P14A, S53T, S74A, R86K
notes: Kabat numbering
B18: CX3CR1BIIPMP54A3 (VHH)
VHH: B1 VHH with P14A, R44Q, A50G, V56I, S74A, R86K, L113Q
notes: tested as periplasmic extract; not shown: C-terminal c-myc and His6 tags
B19: CX3CR1BIIPMP54A5 (VHH)
VHH: B1 VHH with P14A, R44Q, A50G, V56I, S74A, R86K
notes: as for B18
B20: CX3CR1BIIPMP54B1 (VHH)
VHH: B1 VHH with P14A, R44Q, A50G, V56I, S74A, V78A, R86K, L113Q
notes: as for B18
B21: CX3CR1BIIPMP54B2 (VHH)
VHH: B1 VHH with P14A, S27T, R44Q, A50G, G55D, V56I, S74A, R86K, D104N
notes: as for B18
B22: CX3CR1BIIPMP54B5 (VHH)
VHH: B1 VHH with P14A, R44Q, A50G, V56I, S74A, V78A, R86K
notes: tested as periplasmic extract; also called CX3CR1BII54B5; not shown: C-terminal c-myc and His6 tags
B23: CX3CR1BIIPMP54F6 (VHH)
VHH: B1 VHH with E1K, P14A, R44Q, V56I, S74A, R86K
notes: as for B18
B24: CX3CR1BIIPMP54H4 (VHH)
VHH: B1 VHH with P14A, R44Q, A50V, V56I, R71G, S74A, R86K, P99A
notes: as for B18
B25: CX3CR1BIIPMP61A11 (VHH)
VHH: B1 VHH with G8R, P14A, R44Q, A50V, V56I, R71G, S74A, R86K, P99A, L113Q
notes: as for B18
B26: CX3CR1BIIPMP61D1 (VHH)
VHH: B1 VHH with P14A, P41F, R44Q, A50L, V56I, S74A, R86K, L113Q
notes: as for B18
B27: CX3CR1BIIPMP61D5 (VHH)
VHH: B1 VHH with E1K, P14A, P41F, R44Q, A50L, V56I, S74A, R86K, L113Q
notes: as for B18
B28: CX3CR1BIIPMP61F4 (VHH)
VHH: B1 VHH with P14A, E16A, R44Q, A50V, S53T, V56I, S74A, R86K, P99A
notes: as for B18
B29: CX3CR1BIIPMP61F10 (VHH)
VHH: KVQLVESGGGSVQAGESLRLSCAASGTIFSSNAMAWYRQAPGKQRDLVAGINSVDITKYADSVKGRFTISRDNAKNTVYLQMNSLKPEDTAVYYCTSDPRRGWNTRYWGQGTQVTVSS
notes: as for B18
B30: CX3CR1BIIPMP61G2 (VHH)
VHH: B29 VHH with K1E, E6K, T27S, G50L, D55G, N104D
notes: as for B18
B31: CX3CR1BIIPMP61C9 (VHH)
VHH: EVQLVKSGGGSVQAGESLRLSCAASGSIFSSNAMAWYRQALGKQRDLVALIDSAGITKYADSVKGRFTISRDNAKNTVYLQMNRLKPEDTAVYYCASDARRGWNTKYWGQGTLVTVSS
notes: as for B18

How the values were obtained:
[1] = biological target: T1, human CX3CR1; assay: fractalkine competition FACS
[2] = biological target: T1, human CX3CR1; assay: fractalkine competition FACS; remark: listed apart in the source
[3] = biological target: T1, human CX3CR1; assay: periplasmic extract, A647-fractalkine competition FACS, CHO-huCX3CR1
Excerpt: Periplasmic extracts were screened in a human CX3CR1/human Fractalkine FACS competition assay to assess the blocking capacity of the expressed VHHs. Human CX3CR1 was presented on CHO cells overexpressing CX3CR1. Both a setup using cells harvested from an actively growing culture and a setup using frozen cells was used. As a detection reagent labeled fractalkine was used (R&D Systems, Minneapolis, Minn., USA) labeled with alexa647 (A647-Fractalkine) at a degree of labeling of 1. To setup the assay, first a titration series of the labeled fractalkine was performed on the CHO-huCX3CR1 cells in order to determine the EC50 value for binding. Initially screening was performed at a higher concentration of fractalkine (3 nM) to increase the assay robustness. To increase the sensitivity of the screening to a maximum, the EC30 concentration (1 nM) was chosen for subsequent screening. In brief 50 μl of periplasmic extract was added to 6 nM labeled fractalkine (50 μ;) and 200 000 CHO-huCX3CR1 cells. After one hour incubation at 4 C, cells were washed three times before read out was performed on a FACS Array (Becton Dickinson). First a gate was set on the intact cells as determined from the scatter profile. Next, dead cells were gated out by their fluorescence profile from the PI stain (Sigma, St Louis, US). The fluorescence profile from the alexa647 label was determined for each sample and used for calculation of blocking capacity. As controls, conditions were taken along where there was no VHH present in the peri extract or a known irrelevant VHH and samples were included where excess cold fractalkine was included. For each sample the percentage block was determined using the control samples to determine the assay window.

Binder | % block [1] [%] | IC50 [1] [nM] | % block [3] [%] | also measured
B1 | 101 | 2.2 | – | –
B2 | 101 | 2.2 | – | –
B3 | 101 | 2.3 | – | –
B4 | 101 | 1.9 | – | –
B5 | 101 | 18 | – | –
B6 | 101 | 17 | – | –
B7 | 101 | 16 | – | –
B8 | 99.4 | 14 | – | –
B9 | 98.4 | 190 | – | –
B10 | 98.9 | 1.4 | – | –
B11 | – | – | – | % block [2]: 98%; IC50 [2]: 1.1 nM
B12 | – | – | – | % block [2]: 97.9%; IC50 [2]: 2.1 nM
B13 | – | – | – | % block [2]: 98%; IC50 [2]: 1.7 nM
B14 | – | – | – | % block [2]: 98%; IC50 [2]: 2.8 nM
B15 | – | – | – | % block [2]: 98.3%; IC50 [2]: 1.2 nM
B16 | – | – | – | % block [2]: 98.2%; IC50 [2]: 0.8 nM

Binder | % block [1] [%] | IC50 [1] [nM] | % block [3] [%] | also measured
B17 | – | – | – | % block [2]: 98.1%; IC50 [2]: 1.3 nM
B18 | – | – | 90.8 | –
B19 | – | – | 92.5 | –
B20 | – | – | 92.1 | –
B21 | – | – | 65.3 | –
B22 | – | – | 92.6 | –
B23 | – | – | 96.6 | –
B24 | – | – | 96 | –
B25 | – | – | 78 | –
B26 | – | – | 68.4 | –
B27 | – | – | 94.9 | –
B28 | – | – | 94.4 | –
B29 | – | – | 73.5 | –
B30 | – | – | 82 | –
B31 | – | – | 69.4 | –
